# Source: patent US12097265B2, “Cytotoxic particles for targeting P2X7 receptor” (BIOSCEPTRE (AUST) PTY LTD, priority 2016, dated 2024)
# B1: P2X7-binding domain-coated nanoparticles containing gemcitabine: Liposome of DOPC, oleyl-gemcitabine carbamate conjugate and Maleimido-Succinyl-PEG4000-Oleate, conjugated to an anti-P2X7R single … (conjugate)
# VH: EVQLLESGGGLVQPGGSLRLSCAASGFTFRNHDMGWVRQAPGKGLEWVSAISGSGGSTYYANSVKGRFTISRDNSKNTLYLQMNSLRAEDTAVYYCAEPKPMDTEFDYRSPGTLVTVSS
# Columns and labels:
# 4T1 murine breast tumour [1] = assay: Efficacy of gemcitabine liposome nanoparticles in the 4T1 murine breast tumour model; format: in vivo, mice; details: 0.2 mg gemcitabine, intravenously 3 times a week; versus HEL4-coated nanoparticles containing gemcitabine; P=0.0456
# Protocol: This study aimed to determine the efficacy of P2X7-binding domain-coated nanoparticles (i.e., “BIL03s-coated”) and HEL4-coated nanoparticles to deliver the cytotoxic agent gemcitabine to tumours in the 4T1 murine breast tumour model.
# Nanoparticles were administered intravenously, 3 times a week. Nanoparticles contained either 0.2 mg gemcitabine or PBS buffer (control).
# Tumour volume was measured over the study period (see FIG. 10). Mice were terminated when estimated tumour volume exceeded 1000 mm^3.
# 4T1 murine breast tumour [2] = assay: Dosing regimen investigation: coated nanoparticles versus free gemcitabine, tumour growth; format: in vivo, mice
# [3] = tested on: 4T1-luc2 murine breast cancer cells; assay: Biodistribution imaging of fluorescently labelled nanoparticles in 4T1-luc2 tumour bearing mice; format: in vivo
# Protocol: The near-infrared (NIR) lipophilic fluorescent dye DiR (ThermoFisher) was incorporated into the lipid bilayer of naked nanoparticles, nanoparticles coated with HEL4 (isotype) and nanoparticles coated with variable domains for binding to anti-P2X7R (P2X7-binding domain-coated nanoparticles, or “BIL03s-coated”). Female Balb/c mice were inoculated orthotopically (4th mammary fat pad) with 4T1-luc2 murine breast cancer cells. A 50 μL dose of nanoparticles was injected intravenously at study day 0 and near-infrared (NIR) imaging was performed at 6, 12, 24, 48 and 96 […]. At termination, excised liver, spleen and tumour NIR imaging was performed and bioluminescence imaging was performed on tumour tissues.
molecule,measurement,setting,value
B1,survival,4T1 murine breast tumour [1],prolonged survival
same,tumour suppression (tumour volume),4T1 murine breast tumour [1],greater tumour suppression
same,efficacy for inhibiting tumour growth,"4T1 murine breast tumour [2]; equivalent to 0.3 mg gemcitabine, intravenously twice per week (FIG. 11), versus 0.3 mg free gemcitabine",comparable
same,release of cytotoxic agent,4T1 murine breast tumour [2]; general statement,sustained release
same,toxicity,"4T1 murine breast tumour [2]; general statement, versus existing cancer treatments",lower toxicity
same,accumulation in the excised tumour,"[3]; ex vivo bioluminescence imaging at 96 hr, FIG. 9, versus naked nanoparticles",higher accumulation in the excised tumour
same,accumulation in tumours,"[3]; whole animal NIR imaging and ex vivo bioluminescence, 50 μL intravenous on day 0, versus naked or HEL4-coated control nanoparticles",greater accumulation in tumours
same,retention in the tumour,"[3]; whole animal NIR imaging, FIG. 7, versus non antibody-conjugated particles",retained in the tumour much longer
